According to publication PMC7509637 (Advanced Science, 2020):
Entries after “also recorded” stand apart in the source; their conditions may differ.

Experiments:
Aβ [1] = molecular target: T1, Aβ (Homo sapiens, UniProt P05067); assay: ThT kinetic assay of Aβ fibrillization (seeding with FapC species, Aβ seeds, bLgS); format: biochemical; conditions: 37 °C, n = 3
T1 construct: purchased Anaspec Inc
Protocol: FapC seeds (FapCS) were produced by FapC fibrils of three different ages. The FapC monomers were produced as described^[ ^45 ^] and stored in 6 M GdmCl. Prior to fibrillization, the FapC monomers were purified via a PD10 desalting column. FapC monomers (1 mg mL^−1 or 40 × 10^−6 M) were incubated in deionized water at 37 °C for 1 week to produce mature fibrils and at 37 °C or 25 °C for 4 d to obtain young fibrils. Deionized water was used to make FapC fibrils as it is convenient to transfer the samples to other experimental conditions, i.e., buffered Aβ solution or PBS for in vivo microinjection. However, bacterial amyloids like FapC and curli can make amyloids over a range of conditions.^[ ^93 ^] FapCS were produced by sonicating an aqueous solution of FapC fibrils (10 × 10^−6 M) at 20 power of a probe sonicator (Sonics Vibracell: 750 watts and 20 kHz) for 2 min with 1 s on/off cycle. For in vitro cross‐seeding experiments, 50 × 10^−6 M of Aβ monomers were incubated with 5 × 10^−6 M of FapCS (10:1 molar ratio, Aβ:FapCS) at 37 °C. bLg amyloids were synthesized by heating of bLg monomers (80 °C, pH 2) of 10 mg mL^−1 solution for 24 h. Prior to the production of bLgS, the bLg amyloid solution was brought to pH 7 and then sonicated, similar to FapC, to generate bLgS.
Aβ (Anaspec Inc., purity ≥ 95%) was dissolved in 100 µL of hexafluoro‐2‐propanol (HFIP) and incubated at room temperature for 3 h. The acquired aliquots of this solution were freeze dried and stored at −20 °C for further experimentation. […] For the ThT kinetic assay, a 100 µL of aqueous solution containing Aβ (50 × 10^−6 M), FapCS or bLgS (5 × 10^−6 M) and ThT dye (100 × 10^−6 M) was incubated (37 °C) in a 96‐well plate. The ThT fluorescence (excitation: 445 nm/ emission: 485 nm) was recorded at specified time intervals for 50 h. Kinetic parameters (rate constant k, half‐life t 1/2 and lag‐time) were calculated as described.^[ ^94 ^] Briefly, kinetic curves were fitted to a sigmoidal curve =y0+ymax−y0/1+e^−(t−t1/2)k , where y 0 and y max are initial and final ThT fluorescence values, allowing us to calculate lag time = t 1/2 − 2/k.

Aβ [2] = molecular target: T1, Aβ; assay: TEM imaging of Aβ with FapC species or bLgS; conditions: 12 h incubation, uranyl acetate negative stain
Protocol: Aβ incubated in the presence or absence of FapCS, FapC monomers, FapC fibrils or bLgS were subjected to TEM imaging. After incubation for 12 h, a drop of sample was applied on a glow‐discharged carbon‐coated copper grid. After 1 min, the sample was blotted and then negatively stained with uranyl acetate (1%) for 30 s. The dried grid was then imaged with a Technei F20 TEM at 200 kV. For AFM, a drop of sample was placed on freshly cleaved mica surface and rinsed with water after 2 min and dried with pressurized air. The sample was scanned with an AFM (Nanoscope VIII Multimode Scanning Force Microscopes, Bruker), covered with an acoustic hood to minimize the vibrational noise. Images were acquired under the tapping mode with a silicon nitride cantilever (Bruker). AFM images were processed with Nanoscope Analysis 1.5 software to flatten the background and to calculate the statistical parameters.

adult zebrafish brain = assay: Synaptophysin IHC in brain of adult zebrafish; format: in vivo, zebrafish (AB, Danio rerio); conditions: for synaptophysin-positive synapses/cells (in words): n = 3
Protocol: Adult zebrafish (10 months) were employed for the study. Prior to microinjection, adult zebrafish were anesthetized by placing them in a beaker filled with ice‐chilled tricaine (0.01% in Holtfreter's buffer) for 20 s. The samples of Aβ alone and Aβ with FapCS or bacterial biofilm fragments were injected to the cerebroventricular space of adult fish with a 1 µL Hamilton glass syringe. The concentration of the Aβ peptide was 40 × 10^−6 M (in PBS, pH 7.4) while FapCS or biofilm fragments were included at a 10:1 ratio (Aβ:FapCS or biofilm fragments). The needle penetrated between left and right telencephalon for not more than 1 mm and injection volume was 1 µL. The syringe was washed with ethanol and PBS in between the injections. The injections were made under a stereomicroscope and fish were held in place with forceps. After microinjection, the fish was placed back in the water tank for recovery.
The deposition of Aβ, depletion of synaptophysin positive cells and TUNEL assay were measured by IHC. The adult fish, at 4 d or 2 weeks postinjection with Aβ and Aβ with FapCS or biofilm fragments, were euthanized by placing in ice‐chilled tricaine (0.4% in Holtfreter's buffer) for 1 min. The head of the fish was separated at pectoral fin point with a sharp blade and fixed in paraformaldehyde as described in the “Animal husbandry and ethics statement” section. The fixed heads were dehydrated by dipping in gradual concentration of ethanol, i.e., 20%, 40%, 60%, 80%, and 100% with 10 min at each step. The heads were treated with 20% sucrose overnight, mounted with Tissue Trek OCT mounting medium at −20 °C. The heads were then sectioned into […] section with a cryostat. The sections were mounted on a gelatinized glass slide and immunostained with antibodies. The sections were dried, washed thrice in PBS (pH 7.4), and TritonX‐100 (0.05% in PBS) for 5 min each. […] The sections were imaged by a fluorescence microscope and fluorescence intensities were measured from the images with Fiji ImageJ analysis.

In the case of amyloid beta [Aβ], the “fibrillization rate constant (k)” value (Aβ [1]; Aβ 50 × 10^−6 M alone or with FapCS 5 × 10^−6 M) is reported as 0.7 h⁻¹, the TEM observation (Aβ [2]) is reported as “prefibrillary oligomers” and the “synaptophysin-positive synapses/cells (in words)” value (adult zebrafish brain; 2 weeks postinjection) is reported as “neurodegeneration of synaptophysin positive cells; also recorded: degenerate synaptophysin‐positive synapses”. The “synaptophysin-positive synapses/cells (in words)” value (adult zebrafish brain; 4 d postinjection) was “synaptophysin positive neuronal cells”.

B1: FapCS: FapC seeds obtained by sonication of mature FapC fibrils (P. aeruginosa) (protein)
chain: GNEGGWHPPKPNPQSNNKGGATALVVDTQQNYNNKVSNFGTLNNASVSGSIKDASGNVGVNVAAGDNNQQANAAALASADASFVFGTATASTSVLQSGYGNTLNNYSNPNTASLSNSANNVSGNLGVNVAAGNFNQQKNDLAAAVSNGQYSTAGSAASQTSTGNTTVNSANYAYGGTYVSLKLNADGSYKGTSDQIGDVYLDTWEGQTHPGGSNTGHIDVDSQAQGAKDLNHDGGAFAFKEKGDVDLKGTVSGFIPAIVGFKTPVTNNASLSNSLQNVSGNVGVNIAAGGGNQQSNSLSIAAGCSSCPAGGESLGF
For B1, the “effect on half-life t1/2 of Aβ (in words)” value (Aβ [1]; 5 × 10^−6 M with Aβ 50 × 10^−6 M, **, p < 0.005) was “significantly shortened”, the “effect on rate constant k of Aβ (in words)” value (Aβ [1]; 5 × 10^−6 M with Aβ 50 × 10^−6 M, FapCS *, p < 0.05, FapC monomer and fibrils **, p < 0.005) was “significantly increased” and the “lag time of Aβ (in words)” value (Aβ [1]; Aβ 50 × 10^−6 M with FapCS 5 × 10^−6 M, **, p < 0.005) was “significantly shortened”. For the same molecule, the “effect on Aβ fibrillization (ThT)” value (Aβ [1]; Aβ 50 × 10^−6 M, seeds/FapC species 5 × 10^−6 M, ThT fluorescence ex 445/em 485 nm) was “acceleration of Aβ fibrillization”, the TEM observation (Aβ [2]) was “appeared to adsorb onto the growing Aβ fibers” and the “synapse health (in words)” value (adult zebrafish brain; FapCS alone, 4 × 10^−6 M, Figure S13) was “Healthy synapses”.
